Experimental data from IntAct's records for PubMed 12646039.

B1: E3 ubiquitin-protein ligase RHA2A (Arabidopsis thaliana (Mouse-ear cress)), Q9ZT50 (parent)
chain: MGLQGQLSDVSSDSIPLMLLSLLAVFINHLRSFLLRLTSKSNPNLPVDDVSIASGLANIIVLADQLSLNRLFSYRCGDGGGGGSDCVVCLSKLKEGEEVRKLECRHVFHKKCLEGWLHQFNFTCPLCRSALVSDDCVSKTQRSVGRDLISCFSLH
partner: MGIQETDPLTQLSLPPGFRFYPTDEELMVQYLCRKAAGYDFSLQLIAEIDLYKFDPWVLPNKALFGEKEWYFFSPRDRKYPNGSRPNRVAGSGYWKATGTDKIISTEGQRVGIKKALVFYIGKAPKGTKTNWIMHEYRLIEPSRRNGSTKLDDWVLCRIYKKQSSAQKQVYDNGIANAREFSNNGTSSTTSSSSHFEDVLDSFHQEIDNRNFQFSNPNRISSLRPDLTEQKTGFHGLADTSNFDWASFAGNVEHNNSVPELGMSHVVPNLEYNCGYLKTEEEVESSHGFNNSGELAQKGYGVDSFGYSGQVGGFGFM

Variants of: B1
Conditions: with nac19_arath NAC019, Q9C932

Question: Which “effect of a mutation on the interaction” value does the source give for MGLQGQLSDVSSDSIPLMLLSLLAVFINHLRSFLLRLTSKSNPNLPVDDVSIASGLANIIVLADQLSLNRLFSYRCGDGGGGGSDCVVCLSKLKEGEEVRKLPCRHVFHKKCLEGWLHQFNFTCPLCRSALVSDDCVSKTQRSVGRDLISCFSLH here?
Answer: The value was “decreasing interaction”.

Question: Which “effect of a mutation on the interaction” value does the source give for MGLQGQLSDVSSDSIPLMLLSLLAVFINHLRSFLLRLTSKSNPNLPVDDVSIASGLANIIVLADQLSLNRLFSYRCGDGGGGGSDCVVSLSKLKEGEEVRKLECRHVFHKKCLEGWLHQFNFTCPLCRSALVSDDCVSKTQRSVGRDLISCFSLH here?
Answer: The value was “decreasing interaction”.
